Patent US20250144186A1, “NOVEL THERAPEUTIC USES OF GARDNERELLA ENDOLYSINS” (priority 2022, published 2025)
“And” between values parts separate entries of the source, which are not always exact repeats. Equal entries are not always repeated. Where two headings read alike, the source gives them in different places.

Columns and labels:
G. piotii biofilm = assay type: cell-based, Gardnerella piotii
Protocol: (§1) Gardnerella spp. (see figures for strain specification) was resuspended in brain heart infusion broth supplemented with 2% (w/v) gelatin, 0.5% yeast extract (w/v), 0.1% starch (w/v) and 0.25% glucose (w/v) (sBHIG). Passaged strains were resuspended in unbuffered NYCB supplemented with 1% glucose (w/v) (sNYCB). The OD600 was set to 0.1 (approx. 10^7-10^8 CFU/mL) and the cell suspension was diluted 1:10 in growth medium as input for biofilm formation. A total of 200 μL of the respective bacterial suspensions was added to 96-well flat bottom plates (tissue-culture treated, Sigma-Aldrich). The biofilms were grown under anaerobic conditions at 37° C. for 40 to 72 hours, depending on the isolate. Subsequently, the supernatant was removed, and the biofilm was treated with antimicrobials dissolved in sBHIG (at pH 5 for treatment with PM-477 (H2B10), and unbuffered for treatment with antibiotics) in 100 μL and incubated anaerobically at 37° C. for another 24 hours. After the treatment, the biofilms were washed twice with 200 μL 1x PBS and dissolved by vigorous pipetting (40x up and down). Serial dilutions of the dissolved cells were spotted on chocolate agar plates. The plates were incubated anaerobically for two to three days and the minimum biofilm eradication concentration (MBEC) of the endolysin or the antibiotics in use were calculated.
(§2) Gardnerella dominated biofilms covering the human vaginal epithelial cells are now generally considered as a hallmark of BV. Thus, it was tested how effective antibiotics and PM-477 (H2B10) are in penetrating and killing in vitro pre-formed, 40-72 h old biofilms of various Gardnerella strains.

passaged G. piotii = assay: MIC on strains passaged with MDZ-OH; assay type: cell-based, Gardnerella piotii
Protocol: (§3) The minimum inhibitory concentration (MIC), which is a standard measure of the activity of antimicrobials, was determined according to the Clinical and Laboratory Standards Institute protocol (2018) Methods for Antimicrobial Susceptibility Testing of Anaerobic Bacteria (Carpenter et al., 2018). […] Controls for growth in the absence of antimicrobials were also included. OD600 was recorded by a microplate reader (Tecan, Grodig, Austria) after incubation at 37° C. for 48 h or, for some fast-growing strains, after incubation for 24 h. Absence of growth was defined as OD600≤0.14. […] MIC readout and MBC99.5 spotting were performed after 72 h incubation for H2B10B11. MBC99.5 is the minimum concentration of an antibacterial agent that results in bacterial death of all cells in suspension up to a defined limit of detection, resulting in killing of at least 99.5% of bacteria.
The final volume of the reaction was 100 µL and the reactions were performed in triplicate in 384-well plates. The OD600 was measured using a microplate reader (Tecan, Grodig, Austria) to generate timepoint 0 h baseline values. […] In each round, the input CFU/mL was determined by quantitative plating.
(§4) The susceptibility of Gardnerella strains before and after 8 to 9-times passaging with sub-MIC concentrations of MZD or MDZ-OH is shown in Table 4 below. All MICs determined after 48 h of incubation.

G. swidsinskii biofilm = assay type: cell-based, Gardnerella swidsinskii
Protocol: as §1, §2

G. vaginalis biofilm = assay: MBEC on pre-formed biofilms of ancestor isolates; assay type: cell-based, Gardnerella vaginalis; details: for Eradication of biofilm-grown cells (FIG. 1): G. vaginalis (ATCC14018), biofilm grown 40 h, treated 24 h
Protocol: as §1, §2

passaged G. swidsinskii = assay: MIC on strains passaged with MDZ-OH; assay type: cell-based, Gardnerella swidsinskii; details: for MIC: Gardnerella swidsinskii, 48 h; for MIC passaged: 48 h incubation
Protocol: as §3
(§5) The final volume of the reaction was 100 µL and the reactions were performed in triplicate in 384-well plates. The OD600 was measured using a microplate reader (Tecan, Grodig, Austria) to generate timepoint 0 h baseline values. The reactions were incubated anaerobically for 24 h, then the OD600 was measured again, and the MIC was measured as the lowest concentration with OD600<0.14. […] This process was repeated for a maximum of 25 rounds. In each round, the input CFU/mL was determined by quantitative plating.
as §4

[1] = test system: passaged G. piotii biofilm; assay: MBEC on biofilms of passaged strains; assay type: cell-based, Gardnerella piotii; details: G. piotii (UGent 18.01T) passaged with MDZ-OH
Protocol: as §1
(§6) All MICs determined after 48 h of incubation.

[2] = test system: passaged G. swidsinskii biofilm; assay: MBEC on biofilms of passaged strains; assay type: cell-based, Gardnerella swidsinskii
Protocol: as §1, §6

[3] = test system: MDZ or MDZ-OH passaged Gardnerella strains grown as biofilm; assay: MBEC on biofilms of the six passaged strains, summary; assay type: cell-based, Gardnerella spp.; details: for Susceptibility of MDZ-passaged strains grown as biofilm (FIG. 4): 72 h pre-formed biofilms treated for 24 h; for MBEC, range over passaged strains: six strains passaged on MDZ or MDZ-OH, pre-formed biofilms, 24 h treatment
Protocol: as §1

passaged G. vaginalis = assay: MIC on strains passaged with MDZ or MDZ-OH; assay type: cell-based, Gardnerella vaginalis; details: for MIC: Gardnerella vaginalis, 48 h; for MIC passaged: 48 h incubation
Protocol: as §3, §5, §4

[4] = test system: G. vaginalis (ATCC 14018); assay: Bactericidal effect in suspension by quantitative plating, wild type and MDZ-passaged; assay type: cell-based, Gardnerella vaginalis; details: for reduction of a suspension of 108 CFU/mL: 10 μg/mL, 1 h
Protocol: Bacterial suspensions (OD600 of 0.1, corresponding to approximately 10^7-10^8 CFU/mL) were prepared by scraping the cells from confluently grown agar plates and diluting them into NYCB+10% HS, pH 5.5. Reactions were performed in triplicate by mixing ten μl of endolysin (200 μg/mL) with 90 μL bacterial suspension in the wells of a 96-well plate. Ten UL MES buffer without the endolysin was used as a control. […] Tenfold dilution series (10^−1 to 10^−6) of the cell reaction mixtures were prepared in NYCB+10% HS and 2 μL of each dilution were spotted onto Choc agar plates. After anaerobic incubation at 37° C. for 48 h, colonies were counted, CFU/mL calculated, and the log10 reduction compared to MES buffer treated control was determined.
as §6

[5] = ancestor G. piotii UGent 18.01, pre-formed biofilm
[6] = ancestor G. piotii UGent 21.28, pre-formed biofilm
[7] = ancestor G. swidsinskii GS 9838-1, pre-formed biofilm
[8] = ancestor G. swidsinskii UGent BV 7.1, pre-formed biofilm
[9] = ancestor G. vaginalis UGent FB049, pre-formed biofilm
[10] = G. swidsinskii (GS 9838-1T) passaged with MDZ-OH
[11] = G. swidsinskii (UGent BV 7.1) passaged with MDZ-OH

`Cc1ncc([N+](=O)[O-])n1CCO` [MDZ, metronidazole] was tested, and the MBEC (G. piotii biofilm; [5]) was 8 µg/mL, the MBEC (G. piotii biofilm; [6]) was 8 to 32 µg/mL and the MIC (passaged G. piotii; Gardnerella piotii, 48 h, read-out: MIC passaged) was > 2050 µg/mL. For the same molecule, the MBEC (G. swidsinskii biofilm; [7]) was 32 µg/mL, the MBEC (G. swidsinskii biofilm; [8]) was 32 µg/mL and the “Eradication of biofilm-grown cells (FIG. 1)” value (G. vaginalis biofilm) was “can be eradicated”. The MBEC (G. vaginalis biofilm; [9]) was 2 to 8 µg/mL, the MIC (passaged G. swidsinskii; read-out: MIC passaged, G. swidsinskii (GS 9838-1T) passaged with MDZ-OH, 48 h incubation) was > 512 µg/mL and the MIC (passaged G. swidsinskii; read-out: MIC passaged, G. swidsinskii (UGent BV 7.1) passaged with MDZ-OH, 48 h incubation) was > 2050 µg/mL. The MBEC passaged [1] was >2048 µg/mL, the MBEC passaged [2, 10] was >2048 µg/mL and the MBEC passaged [2, 11] was >2048 µg/mL. The “Susceptibility of MDZ-passaged strains grown as biofilm (FIG. 4)” value [3] was “resistant”, the “MBEC, range over passaged strains” value [3] was > 2048 µg/mL and the MIC (passaged G. vaginalis; read-out: MIC passaged, G. vaginalis (ATCC 14018T) passaged with sub-MIC MDZ, 48 h incubation) was > 512 µg/mL. For the same molecule, the MIC (passaged G. vaginalis; read-out: MIC passaged, G. vaginalis (UGent 09.07) passaged 8 times with MDZ-OH, 48 h incubation) was > 2050 µg/mL, the MIC (passaged G. vaginalis; read-out: MIC passaged, G. vaginalis (UGent BV50) passaged with MDZ-OH, 48 h incubation) was > 2050 µg/mL and the “reduction compared to the buffer treated control” value ([4]; MDZ-passaged G. vaginalis (ATCC 14018), 2 mg/ml, 24 h) was 2 log. For the same molecule, the loss in viability ([4]; MDZ-passaged G. vaginalis (ATCC 14018), up to 2 mg/ml, 1 and 5 hours) was “without any loss in viability”.

B1: PM-477: genetically engineered recombinant Gardnerella-specific endolysin, amino acid sequence SEQ ID NO: 1, His-tag cleaved off (protein)
chain: SKRGIDVSEWQGDIDFNAVKASGVEFVIIRAGYGIGCKDKWFEQNYRKAKTCGLDVGAYWYSYANSGFEAAEEAQSCVNMLSGKSFEYPVYFDLEEKSQLNRGRAFCDSLITGFCNKLESCGYYAGFYTSLSTANNLVSAHVRNRYALWIAQWNTHCSYQGSYGLWQYSSSGSVPGVAGRVDMDYAYVDYPSIIKNVGLNGYKNGGSYTAPQISSIDEVAREVINGDWGNGNERKQRLTSAGYDYASVQNKVNELLGVKAYRKSVDELAREVIRGTWGNGSTRKQRLTQAGYDYNAVQKRVNELL
modifications: His-tag cleaved off; H2B10
In the case of B1, the MBEC (G. piotii biofilm; [5]) is reported as 8 µg/mL, the MBEC (G. piotii biofilm; [6]) is reported as 2 to 8 µg/mL and the MIC passaged (passaged G. piotii; G. piotii (UGent 18.01T) passaged with MDZ-OH, 48 h incubation) is reported as 2 µg/mL. For the same molecule, the MBEC (G. swidsinskii biofilm; [7]) was <2 µg/mL, the MBEC (G. swidsinskii biofilm; [8]) was 32 µg/mL and the “Eradication of biofilm-grown cells (FIG. 1)” value (G. vaginalis biofilm) was “can be eradicated”. For the same molecule, the MBEC (G. vaginalis biofilm; ancestor G. vaginalis ATCC14018, pre-formed biofilm, 24 h treatment) was 32 µg/mL, the MBEC (G. vaginalis biofilm; ancestor G. vaginalis UGent 09.07, pre-formed biofilm) was 16 µg/mL and the MBEC (G. vaginalis biofilm; ancestor G. vaginalis UGent BV50, pre-formed biofilm) was 2 µg/mL. The MBEC (G. vaginalis biofilm; ancestor G. vaginalis UGent BV111.5, pre-formed biofilm) was 8 to 32 µg/mL, the MBEC (G. vaginalis biofilm; [9]) was 0.5 to 2 µg/mL and the MIC passaged (passaged G. swidsinskii; [10]) was 0.06 µg/mL. The MIC passaged (passaged G. swidsinskii; [11]) was 0.06 µg/mL, the MBEC passaged [1] was <1 µg/mL and the MBEC passaged [2, 10] was 2 µg/mL. The MBEC passaged [2, 11] was 2 µg/mL, the “Susceptibility of MDZ-passaged strains grown as biofilm (FIG. 4)” value [3] was “susceptible” and the “MBEC, range over passaged strains” value ([3]; listed as PM-477 (H2B10)) was 1 to 8 µg/mL and 1 to 4 µg/mL. It also gave an MIC passaged (passaged G. vaginalis; G. vaginalis (ATCC 14018T) passaged with sub-MIC MDZ) of 0.13 µg/mL, an MIC passaged (passaged G. vaginalis; G. vaginalis (UGent 09.07) passaged 8 times with MDZ-OH) of 0.25 µg/mL and an MIC passaged (passaged G. vaginalis; G. vaginalis (UGent BV50) passaged with MDZ-OH) of 0.25 µg/mL. The “reduction of a suspension of 108 CFU/mL” value ([4]; MDZ-passaged G. vaginalis (ATCC 14018)) was 2.8 log units and the “reduction of a suspension of 108 CFU/mL” value ([4]; ancestral G. vaginalis (ATCC 14018)) was 3.0 log units.
